This is an account of results in patent publication US20020120098A1, “Enhanced stimulation of erythropoiesis” (priority 1996, published 2002).

Data set [1] deals with total erythroid progenitors (BFU-E+CFU-E). As to the kind of experiment: Inhibition of succinylacetone (SA) toxicity to erythroid progenitors in CFA. In kind it is cell-based, human. The settings on record: 0.5 mM SA only, no other addition. The procedure:
(§1) The effect of the various additives on the inhibitory effect of succinylacetone (SA), a heme synthesis inhibitor, on erythroid progenitors was determined. Primary LDMNC were cultured in methyl cellulose as described in Example 1. Cord blood LDMN were plated in the presence of 1.0 mg/ml HAo (15.6 μM; n=12) or HEMOLINK™ (15.6 μM; n=5), 100 μM hemin (n=12), 250 μM FeCl3 (n=11) or no addition (n=12), in absence or presence of 0.5 mM SA. Cultures were maintained in a humidified chamber at 37° C., 5% CO2, and ambient oxygen tensions for 14 days.
Results are expressed as the number of total erythroid progenitors (BFU-E+CFU-E) present on plates treated with the various additives in the presence of SA relative to the number present on untreated plates (no SA or other addition). Significant differences in the presence of the respective additives compared to no addition (SA only; relative progenitor number=0.31) are as indicated: *p<0.001, **p<0.0001. Significant differences in the presence of the respective additives compared to no treatment (no SA; solid line at relative erythroid progenitor number=1.0) are as indicated: +p<0.05, ++p<0.001.

The subject of data set [2] is CFU-GM. Briefly: Colony formation assay (CFA), cord blood LDMNC: CFU-GM colonies. In kind it is cell-based, human. Here is the method:
(§2) This technique, referred to as the colony formation assay (CFA), is the most widely used biological assay to identify and enumerate erythroid progenitors present in hematopoietic tissue such as blood and bone marrow. Cell populations containing erythroid progenitors are plated in semi-solid suspensions of methyl cellulose, agar, low melting agarose or related substances in nutrient culture medium containing 1-3 U/ml Epo and 10 ng/ml IL-3 to specifically stimulate erythroid progenitors. Plates are incubated at 37° C. for 14 days during which time the erythroid progenitors form characteristic hemoglobinized (red) colonies. Two distinct but related erythroid progenitors can be distinguished based on colony size and morphology: BFU-E, the most primitive recognizable erythroid progenitor forms large multilobular colonies whereas the more mature CFU-E forms smaller spherical colonies.
(§3) Adult hemoglobin was purified according to U.S Pat. Nos. 5,439,591 and 5,545,328 to obtain HAo and HEMOLINK™ was prepared from HAo according to U.S. Pat. No. 5,532,352. Human umbilical cord blood intended for discard was collected from the umbilical vein of placentas immediately postpartum into 10 ml vacutainer tubes containing 143 USP units/ml sodium heparin. Low density mononuclear cells were separated from red blood cells by centrifugation over a 1.077 g/ml density gradient Cells removed from the plasma/density gradient interface were incubated overnight in a tissue culture flask with 10 ml cell culture medium containing 10% fetal bovine serum, and non-adherent LDMNC were further purified with an additional density gradient step. The LDMNC were then plated into colony formation assays (CFA) on the second day of isolation. In the CFA, LDMNC were plated at a density of 1×10^5 cells/ml in Iscoves modified Dulbeccos cell culture medium containing 0.8% methyl-cellulose, 30% fetal bovine serum, 1% bovine serum albumin, 0.1 mM 2-mercaptoethanol and 2 mM L-glutamine. Unless indicated otherwise, under standard CFA conditions 2 U/ml Epo and 10 ng/ml IL-3 are added to the formulation to stimulate hematopoietic progenitor growth, specifically BFU-E, CFU-E and CFU-GM.
(§4) Each condition was tested in duplicate in from 2-18 independent experiments. Cultures were maintained in a humidified incubator at 37° C., 5% CO2 and ambient oxygen tensions. The number of hematopoietic progenitors was scored between days 13-15 by counting the number and types of colonies present.
as §1
HEMOLINK™ was evaluated for its ability to protect erythroid progenitor cells from toxicity due to ganciclovir. Cord blood LDMNC were set up in CFAs in the presence and absence of 1 mg/ml HEMOLINK™ plus 0, 0.1, 1.0, 10, 50 or 100 μM ganciclovir. Conditions for the CFA were similar to those described in Examples 1-4. […] All data are expressed relative to the number of colonies of control plates without HEMOLINK™. The hematopoietic progenitors display different sensitivities to ganciclovir. CFU-E were unaffected by 1 μM ganciclovir. However, a similar inhibition of BFU-E occurs at a 50-fold lower dose of ganciclovir (1 μM). […] Due to the difficulty in scoring CFU-GM in the presence of hemoglobin precipitates, as previously noted, they could not be accurately measured under these conditions. Thus, HEMOLINK™ reduces toxicity of ganciclovir to erythroid progenitors with the most pronounced effect on BFU-E cells.

Data set [3] is described as follows: Half-life and blood level of Epo versus HEMOLINK after single i.v. administration. The data set is classed as in vivo. The note with it: single i.v. 225 U/kg. The source says:
Another strategy for the co-administration of Epo and hemoglobin is to reduce the number of Epo administrations required during therapy. Several Epo therapies follow the regimen of three weekly injections, either intravenously or subcutaneously. Multiple low dose or single high dose injections of Epo are required due to its relatively short half-life in vivo. […] HEMOLINK™ has a longer half-life. […] Longer half-life of the cross-linked hemoglobin can therefore compensate for Epo which may decline at a much faster rate. Thus, hemoglobin co-administered with Epo could prolong the effectiveness of Epo and therefore this combination therapy can be used to reduce the required frequency of Epo administrations.

For data set [4] the following is noted: cited from earlier work.
Data set [5] deals with CFU-E. Briefly: Colony formation assay (CFA), cord blood LDMNC: CFU-E colonies. The settings on record: absence of HEMOLINK
In kind it is cell-based, human. The procedure:
as §2, §3, §4
(§5) Erythroid progenitor colony formation assays were conducted as described in Example 1 except that cultures were incubated at either ambient oxygen tensions (˜20% O2) or 5% O2. The reduced oxygen tension of 5% O2 approximates the physiological intravascular oxygen tension in mammals. The mean fold increase in cord blood BFU-E, CFU-E and CFU-GM progenitor number at 5% O2 produced by 1.0 mg/ml HAo (15.6 μM; n=11) or HEMOLINK™ (15.6 μM; n=6), 100 μM hemin (n=10), 250 μM FeCl3 (n=6) or no addition (n=17-18), is shown FIG. 2. Results are expressed relative to control cells treated only with respective vehicles and cultured at ambient oxygen tensions (˜20% O2; fold expansion=1.0; *p<0.05, **p<0.01).
(§6) Erythroid progenitor colony formation assays were conducted as described in Example 1 except that cultures were initiated in the presence of Epo concentrations ranging from 0-2 U/ml. The mean fold increase in cord blood BFU-E, CFU-E and CFU-GM progenitor number produced by 1.0 mg/ml HAo (15.6 μM; n=9) or HEMOLINK™ (15.6 μM; n=6), 100 μM hemin (n=8), 250 μM FeCl3 (n=6), or no addition (n=9-10) in the presence of reduced Epo concentrations (0.2 U/ml) is shown in FIG. 3. Cultures were maintained at ambient oxygen tensions (˜20% O2) for 14 days. Results are expressed relative to control cells at 2 U/ml Epo treated only with the respective vehicles (solid line at fold expansion=1.0; *p<0.05, **p<0 01). Erythroid progenitor colonies were undetectable in the absence of Epo. […]

For data set [6], the system named is BFU-E. Briefly: Colony formation assay (CFA), cord blood LDMNC: BFU-E colonies. The settings on record: 0.1-100 μM ganciclovir, absence of HEMOLINK
The data set is classed as cell-based, human. Here is the method:
as §2, §3, §4, §5, §6

Where two headings read alike, the source gives them in different places.

For the compound `CC(=O)CC(=O)CCC(=O)O` [SA, Succinylacetone], the “relative erythroid progenitor number (BFU-E+CFU-E) vs untreated plates” value in data set [1] was determined as 0.31. Besides, the “effect of SA on CFU-GM proliferation” value in data set [2] (0.5 mM SA) was “did not inhibit CFU-GM proliferation”.
As for “Epo: recombinant human Epo; hormone that stimulates erythroid progenitors”, the Epo level in data set [3] (0 hours post administration, assuming 85 ml/kg) came out at 2.7 U/ml; in data set [3] (21 hours post administration), 0.33 U/ml; in data set [3] (42 hours post administration), 0.041 U/ml; in data set [3] (63 hours post administration), 0.0052 U/ml; in data set [3] (84 hours post administration) it was 0.00065 U/ml. Besides, the half-life in plasma in data set [4] (after a subcutaneous injection) is 11.2 to 21.1 h; in data set [4] (after an intravenous injection), 5.6 to 8.8 h. Besides, the “fraction of subcutaneous dose absorbed into the bloodstream” value in data set [4] (subcutaneous) is given as 21.5-46.6%.
Regarding `Nc1nc(O)c2ncn(COC(CO)CO)c2n1` [ganciclovir], the “effect on CFU-E at 1 μM ganciclovir” value in data set [5] (1 μM ganciclovir) is “unaffected”. For the same compound, the “inhibition of CFU-E by ganciclovir” value in data set [5] (0.1-100 μM ganciclovir) is on record as “dose-dependent inhibition”. Moreover, the “inhibition of BFU-E by ganciclovir” value in data set [6] was “dose-dependent inhibition”. For the same compound, in data set [2] (human, 14 days), the “dose at which CFU-GM are completely inhibited” value is recorded as “greater than 10 μM”.
